Test results from US11262348B2, “Cell-based assays for detection of antibodies or other factors that neutralize uptake of lysosomal enzymes” (BIOMARIN PHARMACEUTICAL INC., priority 2015, dated 2022).
Like-named read-outs stand apart in the source and are kept apart here. Marks after values point to notes of the source that are not given here.

Columns and labels:
[1] = NAb and TAb titers and positivity in individuals treated with elosulfase alfa (clinical study); assay type: in vivo, human
Procedure: Samples from a 24 week study of rhGALNS (elosulfase alfa) treatment were assessed for NAb at baseline and weeks 2, 4, 8, 12, 16, 20 and 24. rhGALNS was infused at 2.0 mg/kg body weight in two dosing cohorts, weekly and every other week (QOW). Positive samples (FIG. 2A) show comparatively low NAb titers [wk 24 mean 52 (range 0 to 1,098) in the weekly group and 130 (range 0 to 1,659) in the QOW group] relative to anti-rhGALNS total antibody (TAb) titers [wk 24 mean 167,737 (range 0 to 1.77×10^6) in the weekly group and 190,901 (range 810 to 1.77×10^6) in the QOW group] (FIG. 2B).
NAb titers and clinical outcomes To compare the functional NAb assay with the previously reported ELISA-based CI-M6PR binding assay for detecting NAb in elosulfase alfa-treated individuals with Morquio A syndrome [Schweighardt et al., supra], serum samples from the clinical trial were reanalyzed with the cell-based assay. Sufficient serum-sample volumes were available for the majority (842/847 [99%]) of serum sample collection time points to obtain confirmed positive/negative results. The overall concordance was high (89%) between NAb positivity in the receptor binding assay and the cell-based assay. Furthermore, the concordance was consistent over the 24-week treatment period (FIG. 9A).
TAb titers detected using the CI-M6PR binding assay reported previously [Schweighardt et al., supra] were compared to the time course for NAb titer development detected with the functional NAb assay (FIG. 9B). Titers of both TAbs and NAbs increased rapidly during the first 8 weeks of treatment then plateaued from week 8 to week 24 in both the QOW and QW treatment groups (FIG. 9B). Although the frequency of drug administration had minimal effect on TAb and NAb titers at week 24, the QW treatment group appeared to have higher titers of both TAbs and NAbs in the initial 4 weeks of treatment. Subjects in both the QOW and QW treatment groups developed different NAb titer courses over 24 weeks.

[2] = Elosulfase alfa pharmacokinetics in individuals with Morquio A syndrome; assay type: in vivo, human; conditions: QOW and QW cohorts, week 22 PK vs week 24 NAb titer
From the text: Effect of NAb Titer on Elosulfase Alfa Pharmacokinetics: In order to further explore the association between NAbs and pharmacokinetics, NAb titers from the functional NAb assay were compared to total clearance (CL) of drug after intravenous administration and elimination half-life (t1/2). Increased NAb titers were associated with prolonged t1/2 in both the QOW and QW cohorts (FIG. 12A).
Antibodies that neutralize elosulfase alfa uptake through CI-M6PR may not exist at concentrations sufficient to prevent effective amounts of elosulfase alfa from reaching target tissues. Although NAbs that block uptake of drug are measureable in our cell-based NAb assay, this amount of NAbs may be insignificant relative to elosulfase alfa dose. This cell-based assay was designed to detect the lowest possible NAb concentrations, ideally prior to observed clinical effects. […] 53 (2014) 1137-1147]. […] 53 (2014) 1137-1147]. Although further investigation is needed, one aspect to the lack of neutralizing antibody effect on efficacy may be that rapid clearance of drug from plasma diminishes the rate of neutralizing antibody-elosulfase alfa complex formation. […] Scler. 15 (2009) 977-983].

[3] = cited from earlier work; for proportion of patients with NAb positivity: long-term extension study
[4] = Efficacy in clinical study: 6MWT distance and urine keratan sulfate (uKS); assay type: in vivo, human; conditions: 24-week treatment period, QOW and QW
Procedure: The primary efficacy measure in the clinical study was the distance walked in a 6MWT, which provides a measure of endurance. Keratan sulfate, an rhGALNS substrate, was also measured in individuals' urine (uKS) to track the pharmacodynamic effect of treatment with elosulfase alfa. NAb titers detected with the functional NAb assay were plotted against the change from baseline to week 24 in 6MWT distance, and the percentage change in uKS from baseline. No association was observed between NAb titer and 6MWT (FIG. 11A) or NAb titer and uKS (FIG. 11B) in individuals dosed weekly or every 2 weeks.

Jurkat cells [5] = assay: Cell-based flow cytometry assay of Alexa488-rhGALNS uptake (screening assay, % SI); parameters: species or system human; conditions: for NHPS (% SI): no AbPC; for MFI: Alexa488-rhGALNS 0.4 μg/mL, 20% pooled human serum
Procedure: Cell uptake of rhGALNS is measured using flow cytometry to determine the amount of fluorophore-conjugated rhGALNS taken up by Jurkat cells. Jurkat cells are a non-adherent human T cell line that express CI-MPR, which binds and targets rhGALNS to the lysosome. rhGALNS neutralizing antibodies (NAb) are detected in samples by a decrease in fluorophore-conjugated rhGALNS uptake (calculated as % inhibition) that exceeds the screening cut point (SCP).
For a 1:1 dilution, 60 μL per well of controls were added in duplicate or in quadruplicate for 2 sets into the appropriate wells. Similarly, for a 1:1 dilution of sample, 60 μL per well of patient screening samples were added into the appropriate wells. For a 1:1 dilution for the confirmation assay, 60 μL per well of patient confirmation samples were added in duplicate into the corresponding wells. The plate was covered, wrapped in foil and allowed to incubate overnight for 14 to 20 hours at 2-8° C.
Assay: Prior to the sample incubation step, the cell plates were removed from the CO2 incubator and observed to ensure the cells were healthy and viable. […] After the incubation was completed, the cells were washed in PBS by centrifuging the plate for 6 min at 310×g in a tabletop centrifuge at 14 to 18° C., repeated two to five times as appropriate. After the last wash, the plate was removed from the centrifuge, the cell pellet resuspended in 100 μL viability stain (red fluorescent reactive dye 1:1000 dilution) and tested for viability. Once viability testing was complete, the cells were centrifuged 6 min at 310×g in a tabletop centrifuge at 14 to 18° C.
Percent Signal Inhibition (% SI) is calculated as [% SI=1—mean median fluorescence intensity (MFI) of sample/mean MFI of control×100]. Confirmatory assay data were analyzed as recovery ratio, defined as mean confirmatory assay MFI of sample/mean screening assay MFI of sample. The titer was calculated as the interpolated dilution factor at which the sample crossed the titer cut point determined by linear regression analysis (Microsoft Excel).

[6] = after 22 weeks, cited from earlier work; for half-life (t1/2): plasma
Jurkat cells [7] = assay: Confocal imaging of Alexa488-rhGALNS internalization and trafficking to lysosomes; assay type: cell-based, human; conditions: LysoTracker Red
Procedure: Confocal Imaging: Internalization of Alexa488-rhGALNS and trafficking to lysosomes was confirmed by confocal microscopy by incubating cells from the functional NAb assay described in section 2.3 with 50 nM LysoTracker Red (Molecular Probes) at 37° C. for 1 h. Cells were then washed with serum-free RPMI-1640 and mounted with Prolong Gold Antifade Mountant with DAPI (Molecular Probes), sealed, and visualized using a Leica SP8 confocal microscope (Leica Microsystems). Confocal Z-stacks were acquired using a 63× Plan-Apo objective with 4× zoom and LASX software (Leica Microsystems). Z-stacks were rendered in 3-D and exported using Volocity software version 6.3 (PerkinElmer).

B1: Recombinant human N-acetylgalactosamine-6-sulfatase (protein, UniProt P34059 27-522, looked up)
N-acetylgalactosamine-6-sulfat …: APQPPNILLLLMDDMGWGDLGVYGEPSRETPNLDRMAAEGLLFPNFYSANPLCSPSRAALLTGRLPIRNGFYTTNAHARNAYTPQEIVGGIPDSEQLLPELLKKAGYVSKIVGKWHLGHRPQFHPLKHGFDEWFGSPNCHFGPYDNKARPNIPVYRDWEMVGRYYEEFPINLKTGEANLTQIYLQEALDFIKRQARHHPFFLYWAVDATHAPVYASKPFLGTSQRGRYGDAVREIDDSIGKILELLQDLHVADNTFVFFTSDNGAALISAPEQGGSNGPFLCGKQTTFEGGMREPALAWWPGHVTAGQVSHQLGSIMDLFTTSLALAGLTPPSDRAIDGLNLLPTLLQGRLMDRPIFYYRGDTLMAATLGQHKAHFWTWTNSWENFRQGIDFCPGQNVSGVTTHNLEDHTKLPLIFHLGRDPGERFPLSFASAEYQEALSRITSVVQQHQEALVPAQPQLNVCNWAVMNWAPPGCEKLGKCLTPPESIPKKCLWSH
notes: enzyme replacement therapy (elosulfase alfa) for the treatment of MPS IVA
- mean NAb titer ([1]; at 12 weeks): 118±271
- NAb titer, mean ([1]; wk 24, 2.0 mg/kg QOW group): 130
- anti-rhGALNS total antibody (TAb) titer, mean ([1]; wk 24, 2.0 mg/kg QOW group): 190,901
- NAb titer, mean ([1]; wk 24, 2.0 mg/kg weekly group): 52
- anti-rhGALNS total antibody (TAb) titer, mean ([1]; wk 24, 2.0 mg/kg weekly group): 167,737
- CL with increased NAb titers (trend) [2]: decreased
- t1/2 with increased NAb titers [2]: prolonged
- development of drug-specific total antibodies (TAb) ([3]; clinical study, treated individuals): all individuals
- proportion of patients with NAb positivity ([3]; week 36): 85.9%
- proportion of patients with NAb positivity ([3]; week 120): 66.0%
- impact of NAb titers on efficacy (6MWT, uKS) [4]: no detrimental impact
- concentration of unlabeled rhGALNS that reduced Alexa488-rhGALNS uptake (Jurkat cells [5]; NPS without AbPC): ≥ 0.22 µg/mL
- rhGALNS concentration the assay can tolerate before interference with Alexa488-rhGALNS uptake (Jurkat cells [5]; drug tolerance): up to 0.22 μg/mL
- highest neat concentration of rhGALNS at which the low and high PC-spiked samples screened positive (Jurkat cells [5]; highest concentration tested): 2.00 µg/mL
- NHPS (% SI) (Jurkat cells [5]; unlabeled elosulfase alfa 0.0027 μg/mL): −10.84 % SI
- NHPS (% SI) (Jurkat cells [5]; unlabeled elosulfase alfa 0.008 μg/mL): 3.79 % SI
- NHPS (% SI) (Jurkat cells [5]; unlabeled elosulfase alfa 0.025 μg/mL): −7.21 % SI
- NHPS (% SI) (Jurkat cells [5]; unlabeled elosulfase alfa 0.074 μg/mL): −5.58 % SI
- NHPS (% SI) (Jurkat cells [5]; unlabeled elosulfase alfa 0.22 μg/mL): 8.00 % SI
- NHPS (% SI) (Jurkat cells [5]; unlabeled elosulfase alfa 0.67 μg/mL): 26.94* % SI
- NHPS (% SI) (Jurkat cells [5]; unlabeled elosulfase alfa 2.00 μg/mL): 55.42* % SI
- half-life (t1/2) ([6]; 2.0 mg/kg QOW): 19 min
- plasma Cmax ([6]; 2.0 mg/kg QOW): 2600 ng/mL
- half-life (t1/2) ([6]; 2.0 mg/kg QW): 36 min
- plasma Cmax ([6]; 2.0 mg/kg QW): 4000 ng/mL

B2: Alexa488-rhGALNS (conjugate, UniProt P34059 27-522, looked up)
N-acetylgalactosamine-6-sulfat …: APQPPNILLLLMDDMGWGDLGVYGEPSRETPNLDRMAAEGLLFPNFYSANPLCSPSRAALLTGRLPIRNGFYTTNAHARNAYTPQEIVGGIPDSEQLLPELLKKAGYVSKIVGKWHLGHRPQFHPLKHGFDEWFGSPNCHFGPYDNKARPNIPVYRDWEMVGRYYEEFPINLKTGEANLTQIYLQEALDFIKRQARHHPFFLYWAVDATHAPVYASKPFLGTSQRGRYGDAVREIDDSIGKILELLQDLHVADNTFVFFTSDNGAALISAPEQGGSNGPFLCGKQTTFEGGMREPALAWWPGHVTAGQVSHQLGSIMDLFTTSLALAGLTPPSDRAIDGLNLLPTLLQGRLMDRPIFYYRGDTLMAATLGQHKAHFWTWTNSWENFRQGIDFCPGQNVSGVTTHNLEDHTKLPLIFHLGRDPGERFPLSFASAEYQEALSRITSVVQQHQEALVPAQPQLNVCNWAVMNWAPPGCEKLGKCLTPPESIPKKCLWSH
modifications: Alexa488 label
- localization by confocal imaging (Jurkat cells [7]): co-localized with lysosomes
- MFI (Jurkat cells [5]; cells incubated at 4° C.): 92.9±1.50
- MFI (Jurkat cells [5]; cells incubated at 37° C.): 4425±98.6
- Kuptake (Jurkat cells [5]; Hanes-Woolf plot linear regression, dose-response 0 to 363.6 nM): 46.3 nM
- Kuptake (Jurkat cells [5]; Jurkat T cells, 4 hours incubation at 37° C.): approximately 5 μg/mL
